The values that follow come from patent US20170081404A1.

The target of assay [1] is Biotin-GCN4 peptide (yeast). The experiment in a line: SPR (Biacore 3000, 25 C): Biotin-GCN4 peptide captured on immobilised streptavidin (CM5 chip), Fab-scFv injected as analyte, 1:1 binding model. (Surface plasmon resonance follows binding to a sensor surface in real time, without labels.)
The target of assay [2] is Biotin-GCN4 peptide (yeast). The assay is described as follows: SPR, Biacore 3000, 25 C; Biotin-GCN4 peptide captured on immobilised streptavidin (CM5), Fab-scFv injected in three-fold dilutions from 30 nM, 1:1 binding model.

B1: Fab A-scFv '52SR4' (protein, part only; not given: Fab A heavy and light chains, not shown: another chain or arm of the molecule; a dimerising Fc or GST; small tags and cut ends)
scFv: DAVVTQESALTSSPGETVTLTCRSSTGAVTTSNYASWVQEKPDHLFTGLIGGTNNRAPGVPARFSGSLIGDKAALTITGAQTEDEAIYFCVLWYSDHWVFGCGTKLTVLGGGGGSGGGGSGGGGSGGGGSDVQLQQSGPGLVAPSQSLSITCTVSGFLLTDYGVNWVRQSPGKCLEWLGVIWGDGITDYNSALKSRLSVTKDNSKSQVFLKMNSLQSGDSARYYCVTGLFDYWGQGTTLTVSSAAAHHHHHHEQKLISEEDL
The term koff denotes the rate constant with which the complex falls apart. A high value points to fast dissociation. One may read the kon as the second-order rate constant of association. By Kd is commonly meant a measure of binding affinity in units of concentration. Read a high Kd as weaker binding. As to B1, in assay [1], the koff was determined as 0.00027 s⁻¹ and the kon stood at 510000 M⁻¹ s⁻¹. The molecule further showed an equilibrium dissociation constant (Kd) in assay [2] of 0.516 nM.
